The values below come from the RNAGym collection of RNA variant scans (doi:10.7554/elife.80360).

The labels stand for the following.
B1: Hammerhead Ribozyme (parent)
chain: ACCGGAUGUGCUUUCCGGUCUGAUGAGUCCGUGAGGACGAAACAG

Variants of B1 are the subject of the series. Kind of series: self-cleavage, relative activity (ratio to wild type); higher = more cleavage; co-transcriptional.
For ACCGGAUGUGCUUUCCGGUCUGAUGACUCUGUGAGGACGAAACAG [G27C C30U], the self-cleavage stood at 0.818.
For the variant GCCGGAUGUGCUUUCCGGUCUUAUGAGUCCGUGAGGACGAAACAG [A1G G22U], the self-cleavage stood at 0.408.
Next, ACCGGAUGUGCUUUCCGGUCUGAUGAGUACGUAAGGACGAAACAG [C29A G33A]: 0.816.
Next, AACGGAUGUGCUUUCCGGUCAGAUGAGUCCGUGAGGACGAAACAG [C2A U21A]: 0.351; ACCGGAUGUGAUUUCCGGUCUGAUGAGUCCGUGAGGACGAAACAG [C11A]: 1.12; ACCGGAUGUGCUUUCCGGUCUUAUGACUCCGUGAGGACGAAACAG [G22U G27C]: 0.347.
Next, ACCGGAUGUGCUUUCCGGUUUGAUGUGUCCGUGAGGACGAAACAG [C20U A26U]: 0.411.
Consider ACCGGAUGUGCUUUCCGGUCUGAUGAGUCCUUAAGGACGAAACAG [G31U G33A], for which the self-cleavage worked out at 0.708.
Next, ACCGGAUGUGCUUUACGGUCUGAUGAGUCCGUGAGGACGAUACAG [C15A A41U]: 0.287; ACCGGAUGUGCUUUCGGGUCUGAUGAGUCCGUGAGGACGAAUCAG [C16G A42U]: 0.26; ACCGGAUGUGCUUUCCGGUCUGAUGAGUCCGUGACGUCGAAACAG [G35C A37U]: 0.517.
Next, ACCGGAUGUGCCGUCCGGUCUGAUGAGUCCGUGAGGACGAAACAG [U12C U13G]: 0.964.
Next, ACCGGAUGUGCUUUCCGGUCUGAUGAGGCCGUGAGGACGAAACCG [U28G A44C]: 0.371.
For ACCGGAUGUGCUUUCCGGUCUGAUGAGUCCGUGUGCACGAAACAG [A34U G36C], the self-cleavage turned out to be 0.406.
Next, ACCGGAUGUGCUUUCCGGUCUAAUGAGUCCGUGAGGACUAAACAG [G22A G39U]: 0.325; GCCGGAUGUGCUUUCCGGUCUGUUGAGUCCGUGAGGACGAAACAG [A1G A23U]: 0.424.
Next, ACCUGAUGUGCUUGCCGGUCUGAUGAGUCCGUGAGGACGAAACAG [G4U U14G]: 0.722; ACCGGAUGAGCUUUCCGGUCCGAUGAGUCCGUGAGGACGAAACAG [U9A U21C]: 0.649; ACCGGAUGUGCUUCCCGGUCUGAUGGGUCCGUGAGGACGAAACAG [U14C A26G]: 0.359.
Next, AACGGAUGUGCUUUCCGGUCUGAUGAGUCCCUGAGGACGAAACAG [C2A G31C]: 0.66.
In the case of ACCGGAUGUGCUUUCCGGUCUGAUGAGUCCCUGAGGGCGAAACAG [G31C A37G], the self-cleavage is 0.968.
Next, ACCGGAUGUGCUUUCCGGACUGAUGAGUCCGUGAGAACGAAACAG [U19A G36A]: 0.369; ACCGGAUGUGCUUUCCGGUCUGACGAGUCCGUGCGGACGAAACAG [U24C A34C]: 0.746; ACCGGAUGUGCUUUCCGGUCUGAUGAGUCCGUGAGGACGCAACAA [A40C G45A]: 0.431.
Next, ACCGGAUGUGCUUUCCUGUCUGAUGAGUCCGCGAGGACGAAACAG [G17U U32C]: 0.633; ACCGGAUGAGCUUUCCGGCCUGAUGAGUCCGUGAGGACGAAACAG [U9A U19C]: 0.535.
Next, ACCGGAUGUGCUUUCCGGUCUGAUGAGUCCGUGAGGACGAAGCGG [A42G A44G]: 0.544.
ACCGGAUGUGCUUUCCGGUCUUAUGAGUCCGUUAGGACGAAACAG [G22U G33U]: the self-cleavage worked out at 0.416.
Next, ACCGGAUGUGCUUUCCGGUCUGAUGAGUCCGUGAGGUCGAAAUAG [A37U C43U]: 0.38; ACCGGAUGUGCUUUCCGGUCUGACGAGUCCGUGAGGACGAAACAA [U24C G45A]: 0.465.
Next, CCCGGAUGUACUUUCCGGUCUGAUGAGUCCGUGAGGACGAAACAG [A1C G10A]: 0.38; ACCGGAUGUGCUUUCCGGUCUGAAGAGUCCGUGAGGACGAAACCG [U24A A44C]: 0.46.
Next, ACCGGACGUGCUUGCCGGUCUGAUGAGUCCGUGAGGACGAAACAG [U7C U14G]: 0.975.
In the case of ACCCGAUGUGCUUUCCUGUCUGAUGAGUCCGUGAGGACGAAACAG [G4C G17U], the self-cleavage was 0.291.
Next, ACCGGAUGUACUUUCCGGUCUGACGAGUCCGUGAGGACGAAACAG [G10A U24C]: 0.932.
For the variant ACCGGAUGUGCUUUGCGGUCUGAUGAGUCCUUGAGGACGAAACAG [C15G G31U], the self-cleavage came to 0.856.
Next, ACCGGAUGUGCUUUCCGGUCGGAUGAGUCCGGGAGGACGAAACAG [U21G U32G]: 0.549; ACCGGGUGUGCUUUCCGGUCUGAUGAGUCCGUGAGGACGACACAG [A6G A41C]: 0.299.
Consider ACGGGAUGUGCUUUCCGAUCUGAUGAGUCCGUGAGGACGAAACAG [C3G G18A], for which the self-cleavage amounted to 0.323.
Next, ACCGGAAGUGCUUUCCGGUCUGAUGAGUCCGUGAGGCCGAAACAG [U7A A37C]: 1.12.
Take ACCGUAUGUGCUUUCCGGUCUGAUGAGUCCGUGAGGGCGAAACAG [G5U A37G]: the self-cleavage stood at 0.46.
As to ACCGGAUGUGCUUUCAGGUCUGAUGAGUCCGUGAUGACGAAACAG [C16A G35U], the self-cleavage was found to be 0.563.
Next, ACCAGAUGUGCUUUCCGGUCUGAUGAGUCCGUGAGGACGAUACAG [G4A A41U]: 0.382; ACCGGAUGUGCUUUCCGGGCUCAUGAGUCCGUGAGGACGAAACAG [U19G G22C]: 0.308; ACCGGAUGUGCUUUCCGGUCUUAUGAGUCCGUGUGGACGAAACAG [G22U A34U]: 0.327.
Next, ACCGGAUAUGCUUUCCGGUCUGAUGAGACCGUGAGGACGAAACAG [G8A U28A]: 0.738; UCCGGAUGUGCUUUCCGAUCUGAUGAGUCCGUGAGGACGAAACAG [A1U G18A]: 0.477; ACCGGAUGUGCUUUCCAGUCUGAUGAGUCCGUGCGGACGAAACAG [G17A A34C]: 0.562.
Next, ACCGGAUGUGCUUUCCGGUCAGAUGAGUCCGUGACGACGAAACAG [U21A G35C]: 0.492.
As to AUCGGAUGUGCUUUCCGGUCUGAUGAGACCGUGAGGACGAAACAG [C2U U28A], the self-cleavage turned out to be 0.445.
On to ACCGGAUGUGCUUUCCGGGCUGAUGAGUCCGUGAGGACGAAACAU [U19G G45U], for which the self-cleavage was determined as 0.389.
Next, ACCGGGUGUGCUUUCCGGUCUGCUGAGUCCGUGAGGACGAAACAG [A6G A23C]: 0.277; ACAGGAUGUGCUUUCCGGUCUGAUGAGUCCGUGAGGACGAAAGAG [C3A C43G]: 0.261.
With ACCGGAUGUGCUUGCCGGUCUGACGAGUCCGUGAGGACGAAACAG [U14G U24C], the self-cleavage turned out to be 0.611.
Next, ACCGGAGGUGCUUUCCGGUGUGAUGAGUCCGUGAGGACGAAACAG [U7G C20G]: 0.386.
Next, UCCGGAUGUGCUUUCCGGUAUGAUGAGUCCGUGAGGACGAAACAG [A1U C20A]: 0.37.
Next, ACCGCAUGUGCUUUCCGGUCUGAUGAGUCCGUGAGCACGAAACAG [G5C G36C]: 0.357.
